By stoichiometry N is commonly meant the number of molecules, sites or subunits per partner or assembly.

This note sets out measurements from publication PMC10457294.

“And” between values parts separate entries of the source, which are not always exact repeats. Equal values may be shown once.

Assay [1] concerns the target human B7.1 ectodomain fused to human Fc (human) (UniProt P33681). Kind of assay: BLI; […] (10 ug/mL) […]; 10 mM HEPES pH 7.4, 150 mM NaCl, 3 mM EDTA, 0.05% Tween, 1% BSA; 25 °C; 1:1 model; […].
In assay [2] the target is human B7.2 ectodomain fused to human Fc (human) (UniProt P42081). The assay is described as above.
Assay [3] concerns the target MPXV M2 (monkeypox virus M2 protein), His-tagged, wild type (monkeypox virus (Clade I)) (UniProt Q8V554). Put plainly: SEC-MALS. A general note: SEC sorts molecules by how far they enter the pores of the column.
The target is the same in assay [4]. Put plainly: cryo-EM structure.
The target in assay [5] is human B7.2 ectodomain, His-tagged (human) (UniProt P42081). Kind of assay: cryo-EM structure.
Assay [6] concerns the target human B7.1 ectodomain, His-tagged (human) (UniProt P33681). Kind of assay: cryo-EM structure.

Chain of human B7.2 ectodomain, His-tagged (human) (P42081 26-238): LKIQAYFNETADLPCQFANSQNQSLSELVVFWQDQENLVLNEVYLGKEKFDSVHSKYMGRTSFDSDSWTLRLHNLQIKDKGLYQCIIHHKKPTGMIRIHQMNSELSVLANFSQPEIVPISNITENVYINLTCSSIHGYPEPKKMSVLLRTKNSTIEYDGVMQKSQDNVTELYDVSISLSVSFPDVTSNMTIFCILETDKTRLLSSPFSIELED
Chain of human B7.2 ectodomain fused to human Fc (human) (P42081 26-238): as above
Chain of human B7.1 ectodomain, His-tagged (human) (P33681 35-234): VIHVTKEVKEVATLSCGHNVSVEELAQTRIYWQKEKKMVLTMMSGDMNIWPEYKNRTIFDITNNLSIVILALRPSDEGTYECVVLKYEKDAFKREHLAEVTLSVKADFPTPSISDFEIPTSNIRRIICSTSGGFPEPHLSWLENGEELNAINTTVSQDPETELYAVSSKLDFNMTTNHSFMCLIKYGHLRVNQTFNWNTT
Chain of human B7.1 ectodomain fused to human Fc (human) (P33681 35-234): as above

Turning to “MPXV M2 (monkeypox virus M2 protein), His-tagged, wild type (from UniProt Q8V554 18-220) (natural protein)”, the t1/2 (dissociation half-life time) stood at 6.62 h in assay [1] and 19.7 h in assay [2]. Also, the stoichiometry N in assay [3] is 6.12; in assay [4], 6 and 7; in assay [5] it was 1; in assay [6], 1.
